assay: label from the status in PepcDB records

Row | Sequence | protein production
1 | MSGDFDTIRDASSPDEVQLVRLLEEKIKSLQIEIENLRKELNYYKAEMEKMLSPPLIEAVVLDVLPDGRVLVRSSSGPNLVVNIASHIDQKLIKPGISVALNQRGSTILEVLPQKE | not failed
2 | MSGGQQERHVLILNTVGGRRAIALEAAAYSLGRDESNAIVIDFETVSRQHAILLRVPVPGTTSYRYRLVDGNANGKPSTNGTFVNGKRISSHELQHGDVILFGRKAKASYLLLSMADTEFSQYLQSIAFQSIKSDLRGAKETLVGMELSGELRRTPNRELEHHHHHH | not failed
3 | MSGKNEADSKDTGWEQIKDKGKIVVATSGTLYPTSYHDTDSGSDKLTGYEVEVVREAAKRLGLKVEFKEMGIDGMLTAVNSGQVDAAANDIDVTKDREEKFAFSTPYKYSYGTAIVRKDDLSGIKTLKDLKGKKAAGAATTVYMEVARKYGAKEVIYDNATNEQYLKDVANGRTDVILNDYYLQTLALAAFPDLNITIHPDIKYMPNKQALVMKKSNAALQKKMNEALKEMSKDGSLTKLSKQFFNKADVSKKIDADVQDVDLLEHHHHHH | not failed
4 | MSGKSSPLSVLEYLAIFAIIMTWGINNAAAKVATAYLPPMTVGGLRFLAALVFLFPFIRPPFPEPKKLAAIVLLTGPIHFGLVYVGFGMGQSLSPLVVASQLWIPFTALVAWKLLGETMRLPAVLGLIVAFVGVAWMTLDPHTSGDLPAIVLIVLASACWAVATILVRMTPGAKPLKVQAVTALFAAPSLLAMSFAFETQVVERVMTAPPIAWACVIFAGVVSTIGASALLFWLVQRREAGRVTPYFLLTPLVSCTLGVAFLGDKLTPQLLIGGAATMVGVALVAMTEKRARAEEALAETA | failed
5 | MSGLDATIINTAIPAIVSDLHGIQYMGWIVACFLLGMSVSVPIWSKLGERMGNKFAFELSLVLFILGSVLEGVAPDIYFFLISRVLMGVGAGGMGSLPYVIVGFIYPNIKRRTVILSYIAASFSAACIAGPLVGGWIVDALSWHWVFYINVPLGLISIILSIAFYRDAHKSKEKVQFDKMGAFTLIAGLTCFLIGIQMLGLASNVMVALFVIVGIILLISFIFIEKKAKSPIVPLSVFLNKALVGDFVLFALAWGAYIAVNTYLPMWSQAILGTSALIGGMTLIPNSILDIAGSQTAPYFLRRFSNYHLLIVDFTLIAITILGLILVPLNTSYWILMLIAAFSGLGVGSIFVILQIKVQIDASEKDMAPATSLSFLIRILAQTIMAAIYGVIMNLALARGIAGHRGITMTMMNKLSDAESAKSLPTAMLPTMRTIFHSGIIEIMCVALFLVVCAYVINFIYNRKEAKKVAE | failed
6 | MSGLLSIFDLSDERGVLRTSIAVTFVISFLGIGFGLFSGSFSIVFDGVYSLIDAGMSLLSLIVVNLITSYAVADHLSRKLRERFSFGLWHLEPMVLGLNGILLISAALYALVTAIGSLLSGGRDLEFGSALIYAAVTVIACAGIAAVEWRANRKIGSEFLRLDVRGWIMSAGISAALLIAFMIGLAVQGTSWQWISPYIDPAVLAAVCVLIIPLPVSTVRQALADIFLVTPVDLKKHLDTVAAAFVAKHGFVSYRAYVARVGRSKEIELYFIVPADAPARTIGEWDMLRDEIGDLVGDDGPNRWLTVVFTGDPEWAE | failed
7 | MSGRYEIRFSGAGGQGLILAGVIMAEAASIYDGKQAVQSQSYGPEARGGASKSEVIISDGPVDYPKATQCDALLALTQEACDKYSADLKEGGVLLVDSDLVTKLPPGNYQTTAFNIINTAKNDVGREIVANIVALGAMVALTGVVSKEAAEKAVLSRVPEAFVELNRKAFQMGFEKALAAKK | failed
8 | MSGSLLLLFVFLSAFLAPPLSRLLRMPVPVGELVIGLLLGHFLAQGVALPEILGFLADFGFLLLMFLAGLEVDFNLLRQLERRHFVFYALYVVGMFLGAGLLAGLLGVGLAQALILALVSIGLMVATLRDMGILGRAFAKRVLILGVLGEVASLFGLTAMEKAAHYQGLLSLLKEVGIIALFFLLLFLAFRLAGLFLWWYPEVGRRLVYEEDPSAMGIRLSLALMFAAAVMSGLVGLESVLGAFLAGMILSYFLQKKHDLEAKLSAMGYGFLIPIFFIRTGMGIDLSGLDGRLLLEVGQALLLMLLIRLLPAPFLLLGGFRLREAFLAALLLAYPFTLMIAGTEIARSAHLLDERAALVLLLAAALSSLLFPWTAKMLLRFLR | failed
9 | MSGVASGKTAIKSTAKVLSFVVQKHWATRLHYDFRLELEGTMKSWAVPKGPSFDPNDKRMAVHVEDHPISYNSFEGEIPSGQYGAGKVIIWDKGTWIPLEDPHKGYRDGKLKFELRGLKLKGHWALVRMRKEENKKQEPWLLIKEKDEYVRSSREYSVVDEMPDSVAELEHHHHHH | failed
10 | MSHDRSVNVSHDAVIAKPERGTMLQSFSPRSHGSKGYSLPQDSEENRGSVGQSAGQSSTSVVDQVRSPADDAGVTSSSTICPAPVCRQFWKAGSYNDELSSKSQQPNGKNYLHVHPMFLHSNATSHKWAFGAVAELLDNAVDEIQNGATFVIVDKTTNPRDGATALLIQDDGGGMDPQAMRHCMGFGFSDKKSDSAIGRYGNGFKTSTMRLGADVIVFSRHSKNQTLTQSIGLLSYTYLTRTGHDRIVVPILDYEFNASAGEFKTLQDREHFISSLSILLEWSPFSTEAELLQQFDDVGPHGTKVIIYNMWLNSDAKLELDFDSVAEDILIEGSIKKTGSKIVNDHIASRFSYSLRVYLSILYLRIPETFKIILRGKVVEHHNVADDLMHPQYILYKPQAAGSEEALVVTTIGFLKEAPKVNLHGFCVYHKNRLIMPFWQVINYSSSRGRGVVGVLEANFVEPTHNKQDFEKTVLLQKLENRLKEMTVEYWSCHCVLIGYQVNKKPRLQIPQKVQPAGRQALSPPPGFQAVFPQGNTTSLPRVSTQPVLLEKRKEHPDSVASAALKRKVGNDDFTVPGHIRVEQFIHGSASQSQDIETVKLMEENKKLRAKCLDRKVRSQNLEVKAMNLRSELENYKSEYERLMVELQALDLVKDEHRRNVNT | failed
11 | MSHEQPVTVSVARTILPGYTRQANAWAHAGQELAREWPGYLGSGWVRNGVDSAEWHMLYRFADADSLQEWEDSEERRWWIDSARDMMETTRVERHTGIEGWFSRPGDVSVVVPETVVPPRWKQAISIFLPFFPLSLLANFLLHPLTQDWQLVLSVLLNIVILTPLMTYIFLPITTRLLQPWLQAKPRKRPR | failed
12 | MSHKISEYFANDPPSFFDELASKPKGNNLSTEGSSSSASSTSSAPNMMSNTFVGFFQPPEYVETPEAGEDSIKVGDDVRNLWELPRENEPGKLIMPGIHLQTDLADPISVAVTQHLGEAELSYRKILRVDDVTQDERGLRTLIHAGCYRTAVNLTGRLLTIYGQGYGRSGQPAKHSPHSLQLWFTRLALLAKLGEFELLNAEAEPFGQLTSPDVFYDFYPEMYNGKSGSIACFSFRLLLAELPIYLGKPHVALDRLSELHVTTREIKEHYLSLHNKAAEEFWQRRCERVLHSIINCGLMMKKFSMIDDIMEGTLLKRSNLSKEDRRSLYSAWGRIYLQIGDIFGAEQKIAVSRRLREINSAPDLRDLVDKGLIAVAKNDFPEAYVIFQKALHLDTGNTMILNNMGVCLLYAGKLKDAINLYERAINLNPQKSLNESLLVNLSTLYELESNNSKAKKYNLLRLINRYKPDLNISIEICLKLQTIN | failed
13 | MSHPFEGLPTTPTAEELVDKAFSRASRAGGAKDGNEAQQSMLMTASNIASDNMENVVTAWPTIDDLDPFYVELADAVVGEAYPADDDPGIDALKQHLSEISWAADKVVEIRQEYESRVARGDIDTARKLRKQAFARIADVVEEVEDDLAAISTAHNALKDIPDIRPNEPAIVVAGYPNVGKSSFVNRVTRADNEIASYPFTTTQIRVGHFEDQRIRYQLVDTPGLLDRPPEDRNEIESQAVSALEHLADAVLVFIDPSGECGYPLADQLELRNAIEARFDVPVLTIANKSDLSTDVEADHYMSVTEDDNVDGVLQAAIDAVDYELELPFDE | failed
14 | MSIDFYNQNASSFYASTVEVDSSSLLEQFTPYLPKGGSVLDAGCGSGRDSKRLIELGFHVDAFDASAALATLAQQLLGKPVRVATFMQFTSTLQYDGIWACASLLHVSKASLPDAFAHLASMLKSGGAFYCSFKYGQGEVERDGRSFTHCDEALLAELLTGSPLVIDKVWLTTDLRVGRENEQWLNAVLLKRLEHHHHHH | not failed
15 | MSIESFNLLLLVMGLVALVVFIALYFVRAGYGMFRSRSWGISVNNKIAWILMEAPVFLVMGWLWWHSDRRFLPVELTFFLFFQLHYFQRAFVFPFLMKGKSKMPVLILLMGVIFNILNGLMQGEWIFYLAPSDYYTPGWLLTPCFWIGTLLFFAGMGINWHSDSVIRHLRAPGDTRHYLPQRGMYRYVTSANYLGEIVEWVGWAILTWSLSGCIFAWWTVANLVPRADAIWHRYREEFGTQVGLKKRIFPFLY | failed
